Test results as given in the supplement of paper PMC9112550, “Optimization of the antimicrobial peptide Bac7 by deep mutational scanning” (BMC Biology, 2022).

Each sequence was assayed on Escherichia coli TOP10 (assay: shrunken log2 fold change of peptide-encoding DNA abundance (4.5 h post-induction vs induction); higher = less antimicrobial activity (less host growth inhibition)). Conditions: time post-induction: 4.5 h; library: site-saturation at positions 5, 18, 19, 20.
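Further: peptides expressed intracellularly from a pBAD plasmid library in pooled LB shake-flask culture, induced with 0.3% L-arabinose, DNA abundance read by NGS, three biological replicates, DESeq2 with apeglm shrinkage.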

RRIRARPPRLPRPRPRPRDMPRP was tested. Which “shrunken log2 fold change” value did it give?
Its value is 1.52.

With RRIRARPPRLPRPRPRPRDVPRP as the sequence, how does the “shrunken log2 fold change” value read?
The value was 0.261.

Which “shrunken log2 fold change” value does the source give for RRIRARPPRLPRPRPRPRERPRP here?
The value was 0.334.

Which “shrunken log2 fold change” value does the source give for RRIRARPPRLPRPRPRPRFMPRP here?
The value was 0.0944.

How did the “shrunken log2 fold change” value turn out when RRIRARPPRLPRPRPRPRICPRP was run?
The value was 0.29.

How did the “shrunken log2 fold change” value turn out when RRIRARPPRLPRPRPRPRKRPRP was run?
Its value is 0.778.

For RRIRARPPRLPRPRPRPRMAPRP, which “shrunken log2 fold change” value is on record?
Its value is 0.479.

With RRIRARPPRLPRPRPRPRSKPRP as the sequence, how does the “shrunken log2 fold change” value read?
The value was 0.374.

RRIRARPPRLPRPRPRPRSYPRP was tested. Which “shrunken log2 fold change” value did it give?
Its value is 0.242.

For RRIRARPPRLPRPRPRPRTIPRP, which “shrunken log2 fold change” value is on record?
Its value is 0.148.

RRIRARPPRLPRPRPRPRVGPRP was tested. Which “shrunken log2 fold change” value did it give?
Its value is 0.352.

With RRIRARPPRLPRPRPRPRVKPRP as the sequence, how does the “shrunken log2 fold change” value read?
The value was 0.488.

With RRIRARPPRLPRPRPRPRYDPRP as the sequence, how does the “shrunken log2 fold change” value read?
Its value is 0.166.

How did the “shrunken log2 fold change” value turn out when RRIRARPPRLPRPRPRPRYPPRP was run?
The value was 0.0172.

RRIRARPPRLPRPRPRPRYSPRP was tested. Which “shrunken log2 fold change” value did it give?
Its value is -0.121.

With RRIRARPPRLPRPRPRPSAHPRP as the sequence, how does the “shrunken log2 fold change” value read?
The value was 0.101.

How did the “shrunken log2 fold change” value turn out when RRIRARPPRLPRPRPRPSALPRP was run?
The value was 0.591.

With RRIRARPPRLPRPRPRPSDEPRP as the sequence, how does the “shrunken log2 fold change” value read?
Its value is 0.324.

For RRIRARPPRLPRPRPRPSDLPRP, which “shrunken log2 fold change” value is on record?
Its value is -0.073.

Which “shrunken log2 fold change” value does the source give for RRIRARPPRLPRPRPRPSDRPRP here?
The value was -0.0583.

For RRIRARPPRLPRPRPRPSGVPRP, which “shrunken log2 fold change” value is on record?
The value was -0.136.

For RRIRARPPRLPRPRPRPSIIPRP, which “shrunken log2 fold change” value is on record?
Its value is -0.254.

Which “shrunken log2 fold change” value does the source give for RRIRARPPRLPRPRPRPSIPPRP here?
Its value is -0.349.

For RRIRARPPRLPRPRPRPSIVPRP, which “shrunken log2 fold change” value is on record?
The value was -0.103.

With RRIRARPPRLPRPRPRPSKDPRP as the sequence, how does the “shrunken log2 fold change” value read?
Its value is -0.111.

How did the “shrunken log2 fold change” value turn out when RRIRARPPRLPRPRPRPSLEPRP was run?
Its value is 0.455.

Which “shrunken log2 fold change” value does the source give for RRIRARPPRLPRPRPRPSLSPRP here?
The value was -0.224.

RRIRARPPRLPRPRPRPSMAPRP was tested. Which “shrunken log2 fold change” value did it give?
The value was 0.333.

Which “shrunken log2 fold change” value does the source give for RRIRARPPRLPRPRPRPSQKPRP here?
The value was 0.106.

Which “shrunken log2 fold change” value does the source give for RRIRARPPRLPRPRPRPSQSPRP here?
The value was 0.0538.

Which “shrunken log2 fold change” value does the source give for RRIRARPPRLPRPRPRPSVIPRP here?
Its value is -0.0459.

How did the “shrunken log2 fold change” value turn out when RRIRARPPRLPRPRPRPSVPPRP was run?
The value was -0.179.

Which “shrunken log2 fold change” value does the source give for RRIRARPPRLPRPRPRPSWDPRP here?
Its value is 0.244.

Which “shrunken log2 fold change” value does the source give for RRIRARPPRLPRPRPRPSYCPRP here?
The value was -0.311.

With RRIRARPPRLPRPRPRPSYQPRP as the sequence, how does the “shrunken log2 fold change” value read?
Its value is -0.234.

Which “shrunken log2 fold change” value does the source give for RRIRARPPRLPRPRPRPTAIPRP here?
Its value is 0.977.

For RRIRARPPRLPRPRPRPTCCPRP, which “shrunken log2 fold change” value is on record?
Its value is 0.653.

With RRIRARPPRLPRPRPRPTDIPRP as the sequence, how does the “shrunken log2 fold change” value read?
The value was 0.224.

Which “shrunken log2 fold change” value does the source give for RRIRARPPRLPRPRPRPTDPPRP here?
The value was 0.2.

Which “shrunken log2 fold change” value does the source give for RRIRARPPRLPRPRPRPTEIPRP here?
Its value is -0.0477.

How did the “shrunken log2 fold change” value turn out when RRIRARPPRLPRPRPRPTFFPRP was run?
Its value is 0.197.

For RRIRARPPRLPRPRPRPTFIPRP, which “shrunken log2 fold change” value is on record?
The value was -0.18.

For RRIRARPPRLPRPRPRPTFNPRP, which “shrunken log2 fold change” value is on record?
The value was 0.0685.

RRIRARPPRLPRPRPRPTGTPRP was tested. Which “shrunken log2 fold change” value did it give?
The value was 0.363.

With RRIRARPPRLPRPRPRPTHKPRP as the sequence, how does the “shrunken log2 fold change” value read?
The value was 0.577.

Which “shrunken log2 fold change” value does the source give for RRIRARPPRLPRPRPRPTHLPRP here?
Its value is 0.326.

How did the “shrunken log2 fold change” value turn out when RRIRARPPRLPRPRPRPTIDPRP was run?
The value was 0.301.

Which “shrunken log2 fold change” value does the source give for RRIRARPPRLPRPRPRPTKKPRP here?
The value was 0.0778.

With RRIRARPPRLPRPRPRPTKTPRP as the sequence, how does the “shrunken log2 fold change” value read?
Its value is 0.247.

RRIRARPPRLPRPRPRPTLPPRP was tested. Which “shrunken log2 fold change” value did it give?
The value was 0.263.

Which “shrunken log2 fold change” value does the source give for RRIRARPPRLPRPRPRPTLVPRP here?
Its value is 0.562.

For RRIRARPPRLPRPRPRPTMIPRP, which “shrunken log2 fold change” value is on record?
The value was 0.00226.

For RRIRARPPRLPRPRPRPTMLPRP, which “shrunken log2 fold change” value is on record?
Its value is 0.15.

How did the “shrunken log2 fold change” value turn out when RRIRARPPRLPRPRPRPTMVPRP was run?
Its value is -0.0882.

RRIRARPPRLPRPRPRPTNWPRP was tested. Which “shrunken log2 fold change” value did it give?
Its value is 0.835.

For RRIRARPPRLPRPRPRPTQYPRP, which “shrunken log2 fold change” value is on record?
The value was 0.116.

For RRIRARPPRLPRPRPRPTRHPRP, which “shrunken log2 fold change” value is on record?
Its value is 0.615.

With RRIRARPPRLPRPRPRPTSEPRP as the sequence, how does the “shrunken log2 fold change” value read?
Its value is 0.751.

Which “shrunken log2 fold change” value does the source give for RRIRARPPRLPRPRPRPTSYPRP here?
Its value is -0.0752.

How did the “shrunken log2 fold change” value turn out when RRIRARPPRLPRPRPRPTTPPRP was run?
Its value is 0.605.

Which “shrunken log2 fold change” value does the source give for RRIRARPPRLPRPRPRPTVEPRP here?
The value was 1.19.

With RRIRARPPRLPRPRPRPTVMPRP as the sequence, how does the “shrunken log2 fold change” value read?
The value was 0.497.

Which “shrunken log2 fold change” value does the source give for RRIRARPPRLPRPRPRPTWRPRP here?
Its value is 0.813.

How did the “shrunken log2 fold change” value turn out when RRIRARPPRLPRPRPRPTYEPRP was run?
Its value is 0.179.

How did the “shrunken log2 fold change” value turn out when RRIRARPPRLPRPRPRPTYHPRP was run?
The value was -0.225.

RRIRARPPRLPRPRPRPTYKPRP was tested. Which “shrunken log2 fold change” value did it give?
The value was -0.23.

How did the “shrunken log2 fold change” value turn out when RRIRARPPRLPRPRPRPVCWPRP was run?
Its value is 0.894.

With RRIRARPPRLPRPRPRPVDDPRP as the sequence, how does the “shrunken log2 fold change” value read?
Its value is 0.469.

Which “shrunken log2 fold change” value does the source give for RRIRARPPRLPRPRPRPVEAPRP here?
Its value is 0.365.

With RRIRARPPRLPRPRPRPVEYPRP as the sequence, how does the “shrunken log2 fold change” value read?
The value was 0.0729.

With RRIRARPPRLPRPRPRPVFPPRP as the sequence, how does the “shrunken log2 fold change” value read?
The value was 0.207.

With RRIRARPPRLPRPRPRPVGKPRP as the sequence, how does the “shrunken log2 fold change” value read?
The value was 0.196.

RRIRARPPRLPRPRPRPVGLPRP was tested. Which “shrunken log2 fold change” value did it give?
Its value is 0.321.

RRIRARPPRLPRPRPRPVGVPRP was tested. Which “shrunken log2 fold change” value did it give?
Its value is 0.528.

With RRIRARPPRLPRPRPRPVHAPRP as the sequence, how does the “shrunken log2 fold change” value read?
The value was 0.768.
